Experimental data reported in publication PMC10397247.
Like-named read-outs stand apart in the source and are kept apart here. Each block holds one binder with its values, some of them ahead of it.

Assays:
Assay in all cases: two-hybrid library CCmax;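 further: natural log of median RNA to DNA barcode read ratio; higher means stronger binding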
P6-AA-1HGe-Q = target: T1, P6-AA-1HGe-Q; conditions: mean of both orientations
T1 chain: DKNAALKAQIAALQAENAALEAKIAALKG

P6-AA-1HGe-M = target: T2, P6-AA-1HGe-M; conditions: mean of both orientations
T2 chain: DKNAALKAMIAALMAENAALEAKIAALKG

P6-AA-1HGe-S = target: T3, P6-AA-1HGe-S; conditions: mean of both orientations
T3 chain: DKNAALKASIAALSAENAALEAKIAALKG

P6-AA-1HGe-R = target: T4, P6-AA-1HGe-R; conditions: mean of both orientations
T4 chain: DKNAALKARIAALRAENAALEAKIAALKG

P6-AA-1HGe-D = target: T5, P6-AA-1HGe-D
T5 chain: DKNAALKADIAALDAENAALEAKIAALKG

P6-AA-1HGe-W = target: T6, P6-AA-1HGe-W; conditions: mean of both orientations
T6 chain: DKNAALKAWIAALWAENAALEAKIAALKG

P6-AA-1HGe-H = target: T7, P6-AA-1HGe-H; conditions: mean of both orientations
T7 chain: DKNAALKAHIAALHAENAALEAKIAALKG

P6-AA-1HGe-T = target: T8, P6-AA-1HGe-T; conditions: mean of both orientations
T8 chain: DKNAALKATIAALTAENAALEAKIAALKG

P6-AA-1HGe-A = target: T9, P6-AA-1HGe-A; conditions: mean of both orientations
T9 chain: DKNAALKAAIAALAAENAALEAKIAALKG

APC4336-AA = target: T10, APC4336-AA; conditions: mean of both orientations
T10 chain: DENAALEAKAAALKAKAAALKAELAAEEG

APC3323-AA = target: T11, APC3323-AA; conditions: mean of both orientations
T11 chain: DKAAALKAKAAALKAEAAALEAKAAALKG

APC3354-AA = target: T12, APC3354-AA; conditions: mean of both orientations
T12 chain: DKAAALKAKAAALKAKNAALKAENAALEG

APC2981-AA = target: T13, APC2981-AA; conditions: mean of both orientations
T13 chain: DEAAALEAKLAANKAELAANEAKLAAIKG

APC9806-AA = target: T14, APC9806-AA; conditions: mean of both orientations
T14 chain: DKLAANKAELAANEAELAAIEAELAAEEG

APC8401-AA = target: T15, APC8401-AA; conditions: mean of both orientations
T15 chain: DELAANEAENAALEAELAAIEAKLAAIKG

APC4100-AA = target: T16, APC4100-AA
T16 chain: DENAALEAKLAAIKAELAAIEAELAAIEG

APC542-AA = target: T17, APC542-AA; conditions: mean of both orientations
T17 chain: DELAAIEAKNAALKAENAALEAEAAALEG

APC6088-AA = target: T18, APC6088-AA; conditions: mean of both orientations
T18 chain: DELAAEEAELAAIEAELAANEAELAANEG

APC9291-AA = target: T19, APC9291-AA; conditions: mean of both orientations
T19 chain: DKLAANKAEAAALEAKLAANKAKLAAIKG

APC3881-AA = target: T20, APC3881-AA; conditions: mean of both orientations
T20 chain: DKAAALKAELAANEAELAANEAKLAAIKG

APC9141-AA = target: T21, APC9141-AA; conditions: mean of both orientations
T21 chain: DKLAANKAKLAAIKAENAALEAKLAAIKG

APC5531-AA = target: T22, APC5531-AA; conditions: mean of both orientations
T22 chain: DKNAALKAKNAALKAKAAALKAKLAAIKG

APC9182-AA = target: T23, APC9182-AA; conditions: mean of both orientations
T23 chain: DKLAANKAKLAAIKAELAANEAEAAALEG

APC2724-AA = target: T24, APC2724-AA
T24 chain: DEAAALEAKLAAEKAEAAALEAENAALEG

APC8516-AA = target: T25, APC8516-AA; conditions: mean of both orientations
T25 chain: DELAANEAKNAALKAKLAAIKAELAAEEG

APC7524-AA = target: T26, APC7524-AA; conditions: mean of both orientations
T26 chain: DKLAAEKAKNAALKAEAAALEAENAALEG

APC5009-AA = target: T27, APC5009-AA; conditions: mean of both orientations
T27 chain: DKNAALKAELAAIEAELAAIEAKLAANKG

APC2811-AA = target: T28, APC2811-AA; conditions: mean of both orientations
T28 chain: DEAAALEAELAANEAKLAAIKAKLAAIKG

APC3265-AA = target: T29, APC3265-AA; conditions: mean of both orientations
T29 chain: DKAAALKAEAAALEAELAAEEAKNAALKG

B3: P5-AA-1HGe-S (peptide)
chain: DENAALEASIAALSAKNAALKAEIAALEG
interaction score (P6-AA-1HGe-Q): 2.1
interaction score (P6-AA-1HGe-M): 1.86
interaction score (P6-AA-1HGe-S): 1.13
interaction score (P6-AA-1HGe-R): 2.01
interaction score (P6-AA-1HGe-D; mean of both orientations): 0.0672
interaction score (P6-AA-1HGe-W): 0.993
interaction score (P6-AA-1HGe-H): 1.75
interaction score (P6-AA-1HGe-T): 1.76
interaction score (P6-AA-1HGe-A): 1.91

B4: P5-AA-1HGe-Q (peptide)
chain: DENAALEAQIAALQAKNAALKAEIAALEG
interaction score (P6-AA-1HGe-Q): 2.07
interaction score (P6-AA-1HGe-M): 2.3
interaction score (P6-AA-1HGe-S): 2.03
interaction score (P6-AA-1HGe-R): 2.05
interaction score (P6-AA-1HGe-D; mean of both orientations): 1.58
interaction score (P6-AA-1HGe-W): 1.97
interaction score (P6-AA-1HGe-H): 2.05
interaction score (P6-AA-1HGe-T): 2.32
interaction score (P6-AA-1HGe-A): 2.25

B5: P5-AA-1HGe-M (peptide)
chain: DENAALEAMIAALMAKNAALKAEIAALEG
interaction score (P6-AA-1HGe-Q): 2.27
interaction score (P6-AA-1HGe-M): 2.35
interaction score (P6-AA-1HGe-S): 1.92
interaction score (P6-AA-1HGe-R): 1.93
interaction score (P6-AA-1HGe-D; mean of both orientations): 1.82
interaction score (P6-AA-1HGe-W): 2.11
interaction score (P6-AA-1HGe-H): 2.03
interaction score (P6-AA-1HGe-T): 2.3
interaction score (P6-AA-1HGe-A): 2.5

B7: P5-AA-1HGe-R (peptide)
chain: DENAALEARIAALRAKNAALKAEIAALEG
interaction score (P6-AA-1HGe-Q): 1.9
interaction score (P6-AA-1HGe-M): 1.53
interaction score (P6-AA-1HGe-S): 1.48
interaction score (P6-AA-1HGe-R): 1.45
interaction score (P6-AA-1HGe-D; mean of both orientations): 1.74
interaction score (P6-AA-1HGe-W): 1.25
interaction score (P6-AA-1HGe-H): 1.64
interaction score (P6-AA-1HGe-T): 1.66
interaction score (P6-AA-1HGe-A): 2.25

B9: P5-AA-1HGe-A (peptide)
chain: DENAALEAAIAALAAKNAALKAEIAALEG
interaction score (P6-AA-1HGe-Q): 2.31
interaction score (P6-AA-1HGe-M): 2.21
interaction score (P6-AA-1HGe-S): 1.63
interaction score (P6-AA-1HGe-R): 2.03
interaction score (P6-AA-1HGe-D; mean of both orientations): 1.06
interaction score (P6-AA-1HGe-W): 1.57
interaction score (P6-AA-1HGe-H): 1.73
interaction score (P6-AA-1HGe-T): 2.02
interaction score (P6-AA-1HGe-A): 2.12

Other lines, results leading:

interaction score (P6-AA-1HGe-Q): 2.22
interaction score (P6-AA-1HGe-M): 1.95
interaction score (P6-AA-1HGe-S): 1.94
interaction score (P6-AA-1HGe-R): 1.82
interaction score (P6-AA-1HGe-D; mean of both orientations): 1.37
interaction score (P6-AA-1HGe-W): 1.32
interaction score (P6-AA-1HGe-H): 1.95
interaction score (P6-AA-1HGe-T): 2.24
interaction score (P6-AA-1HGe-A): 1.95
B1: P5-AA-1HGe-Y (peptide)
chain: DENAALEAYIAALYAKNAALKAEIAALEG

interaction score (P6-AA-1HGe-Q): 2.32
interaction score (P6-AA-1HGe-M): 2.18
interaction score (P6-AA-1HGe-S): 1.91
interaction score (P6-AA-1HGe-R): 2.02
interaction score (P6-AA-1HGe-D): 1.95
interaction score (P6-AA-1HGe-W): 1.71
interaction score (P6-AA-1HGe-H): 2.03
interaction score (P6-AA-1HGe-T): 2.05
interaction score (P6-AA-1HGe-A): 2.2
B2: P5-AA-1HGe-T (peptide)
chain: DENAALEATIAALTAKNAALKAEIAALEG

interaction score (APC4336-AA): -2.23
interaction score (APC3323-AA): -1.8
interaction score (APC3354-AA): -1.48
interaction score (APC2981-AA): -1.68
interaction score (APC9806-AA): -1.79
interaction score (APC8401-AA): -1.54
interaction score (APC4100-AA): -1.68
interaction score (APC542-AA): -1.75
interaction score (APC6088-AA): -1.76
interaction score (APC9291-AA): -1.76
interaction score (APC3881-AA): -2.62
interaction score (APC9141-AA): -3.52
interaction score (APC5531-AA): -1.53
interaction score (APC9182-AA): -1.95
interaction score (APC2724-AA): -1.55
interaction score (APC8516-AA): -1.9
interaction score (APC7524-AA): -1.54
interaction score (APC5009-AA): -1.67
interaction score (APC2811-AA): -1.76
interaction score (APC3265-AA): -1.62
B6: APC2724-AA (peptide)
chain: DEAAALEAKLAAEKAEAAALEAENAALEG

interaction score (P6-AA-1HGe-Q): 2.17
interaction score (P6-AA-1HGe-M): 1.92
interaction score (P6-AA-1HGe-S): 1.46
interaction score (P6-AA-1HGe-R): 1.42
interaction score (P6-AA-1HGe-D; mean of both orientations): 0.67
interaction score (P6-AA-1HGe-W): 0.892
interaction score (P6-AA-1HGe-H): 1.34
interaction score (P6-AA-1HGe-T): 2.11
interaction score (P6-AA-1HGe-A): 1.97
B8: P5-AA-1HGe-W (peptide)
chain: DENAALEAWIAALWAKNAALKAEIAALEG
